Test results published in the supplement of paper PMC10126150.
± gives the standard deviation of the averaged measurements.

These sequences were tested on ATP (assay: switch fluorescence ratio, 500 uM ATP over buffer (Cy3 cluster intensity, sum of 5 cycles each) (fold (ratio)); higher = stronger signal-on switching upon ATP binding; sequences stand for … in TCGTCGGCAGCGTCAGATGTGTATAAGAGACAGTTTTTTTTTTTTTTTTTTTTTTTTT…TC). Details: aptamer strand: ATP DNA aptamer (quencher-CACCTGGGGGAGTATTGCGGAGGAAGG + anchor), 100 nM annealed; ATP concentration: 500 uM.
How it was run: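 Cy3-labelled switching-strand clusters on a modified Illumina MiSeq flow-cell were annealed to 100 nM quencher-labelled ATP aptamer, imaged in selection buffer, then imaged after 15 min with 500 uM ATP at 22 °C. Five buffer/ATP cycles ran, with NaOH stripping and re-annealing between them. The fluorescence ratio is summed target-cycle over summed buffer-cycle Cy3 intensity per cluster, averaged per switch-domain sequence. Clusters outside 100-1000 RFU were excluded.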
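Also: ATP exposure 15 min at 22 °C before imaging.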

Sequence | switch fluorescence ratio
GAATGTAGTC | 1.01 ± 0.013
GAATGTGGGT | 0.994 ± 0.013
GAATGTTAAT | 1.04 ± 0.027
GAATTAAATA | 1.02 ± 0.018
GAATTAGCAC | 1.05 ± 0.038
GAATTATTGT | 0.959 ± 0.022
GAATTATTTT | 1.12 ± 0.16
GAATTCACGG | 1.06 ± 0.038
GAATTGGATC | 1.02 ± 0.019
GAATTGGGCT | 0.9679 ± 0.0032
GAATTGGGGA | 1.01 ± 0.029
GAATTGGTAA | 1.013 ± 0.0076
GAATTTAGTC | 1.06 ± 0.077
GAATTTCGAT | 0.976 ± 0.011
GAATTTGGGG | 0.961 ± 0.03
GAATTTTAGG | 0.9889 ± 0.0096
GAATTTTTGG | 0.997 ± 0.017
GAATTTTTGT | 0.956 ± 0.018
GAATTTTTTA | 0.999 ± 0.018
GACACAGTGT | 0.98 ± 0.026
GACACGTGTT | 1.03 ± 0.045
GACACTATTG | 0.999 ± 0.016
GACACTGCCC | 1.13 ± 0.048
GACAGAAGTG | 1.02 ± 0.019
GACAGCAGGT | 1.07 ± 0.011

Sequence | switch fluorescence ratio
GACAGCGGGT | 1.01 ± 0.015
GACAGGGCGG | 0.983 ± 0.049
GACAGGGGTT | 1.04 ± 0.015
GACAGGGTTA | 1.001 ± 0.0086
GACAGGTATC | 1.01 ± 0.057
GACAGTGTGG | 0.997 ± 0.049
GACAGTTGGG | 0.999 ± 0.017
GACATAAAAA | 0.986 ± 0.076
GACATAAGTT | 1 ± 0.044
GACATATTAT | 1.013 ± 0.0057
GACATCCCCT | 1.04 ± 0.047
GACATGAAGG | 1 ± 0.015
GACATGGCAG | 1.02 ± 0.04
GACATGGCGG | 1.01 ± 0.024
GACATGGGGA | 1.06 ± 0.015
GACATGGGTG | 1.02 ± 0.031
GACATTAGTC | 0.99 ± 0.011
GACATTTCTT | 1.01 ± 0.011
GACATTTTTA | 0.975 ± 0.022
GACCCAGGTA | 2.75 ± 0.18
GACCCGCTAA | 4.18 ± 0.3
GACCGAGTTC | 1.005 ± 0.0024
GACCGGATTC | 1.06 ± 0.11
GACCGGGAGC | 0.995 ± 0.011
GACCGGGCTC | 0.97643 ± 0.00079

Sequence | switch fluorescence ratio
GACCTCGGGA | 1.024 ± 0.0028
GACCTGAGCA | 1.113 ± 0.0034
GACCTTAATG | 1.05 ± 0.013
GACCTTTAAA | 1.02 ± 0.011
GACGAAGCAT | 5.33 ± 0.82
GACGACGGAG | 0.969 ± 0.034
GACGAGGAGG | 1 ± 0.017
GACGAGTGTG | 0.98731 ± 0.00011
GACGATAGAT | 1.048 ± 0.00083
GACGATATGT | 1.07 ± 0.041
GACGATGCGG | 1.196 ± 0.0058
GACGATGTCT | 1.0078 ± 0.00071
GACGCATTTT | 2.18 ± 0.17
GACGCGTTTA | 1.07 ± 0.034
GACGCTCAGC | 1.39 ± 0.019
GACGGCTGGT | 1.01 ± 0.021
GACGGGATTT | 1.03 ± 0.03
GACGGTAGGG | 0.969 ± 0.051
GACGGTTAAA | 1.12 ± 0.11
GACGGTTATC | 1.11 ± 0.059
GACGGTTATT | 1.002 ± 0.0036
GACGGTTCGT | 1.01 ± 0.022
GACGTATCAA | 1.04 ± 0.025
GACGTATCGT | 0.989 ± 0.032
GACGTATTGC | 1.27 ± 0.061

Sequence | switch fluorescence ratio
GACGTCAGCG | 1.05 ± 0.059
GACGTTATGT | 1 ± 0.019
GACGTTGTGG | 1.03 ± 0.014
GACGTTTATG | 0.949 ± 0.099
GACTAAAGTG | 1.01 ± 0.044
GACTAAATGA | 1.01 ± 0.016
GACTAATAGG | 0.992 ± 0.012
GACTACCCCT | 1.234 ± 0.011
GACTACTGCA | 1.13 ± 0.046
GACTAGGTCG | 1.16 ± 0.22
GACTAGTGAC | 1.01 ± 0.021
GACTATTAGA | 0.9918 ± 0.0057
GACTATTGTT | 1 ± 0.015
GACTGAGAAG | 0.945 ± 0.011
GACTGAGAGA | 1.024 ± 0.0035
GACTGAGGTA | 0.99 ± 0.031
GACTGCAGGT | 1.01 ± 0.033
GACTGCGGGG | 0.987 ± 0.038
GACTGCTACT | 1.51 ± 0.028
GACTGGGCGA | 1.02 ± 0.029
GACTGGGGAT | 0.995 ± 0.025
GACTGGTATT | 0.991 ± 0.019
GACTGGTTGG | 1.02 ± 0.029
GACTGGTTTT | 1.01 ± 0.033
GACTGTAAAG | 0.967 ± 0.089

Sequence | switch fluorescence ratio
GACTGTTCCG | 0.958 ± 0.0055
GACTTAAGGC | 1.005 ± 0.0011
GACTTAGTGC | 1.05 ± 0.012
GACTTAGTGG | 1.03 ± 0.077
GACTTAGTTG | 0.987 ± 0.0068
GACTTCGGGA | 1.13 ± 0.052
GACTTGGGCG | 0.957 ± 0.084
GACTTGTAGG | 0.9844 ± 0.0049
GACTTTGGGC | 1.01 ± 0.038
GACTTTTCGA | 1 ± 0.04
GAGAAAATAT | 1 ± 0.038
GAGAAAATCT | 1.01 ± 0.033
GAGAAAGTTC | 1.06 ± 0.038
GAGAAATTAT | 0.9772 ± 0.0067
GAGAAGAGGG | 1.04 ± 0.042
GAGAATAATA | 0.988 ± 0.032
GAGAATCGTC | 1.05 ± 0.064
GAGACTAGAT | 1.01 ± 0.017
GAGAGAATAG | 1.03 ± 0.034
GAGAGAATTT | 1 ± 0.02
GAGAGAGGCT | 0.9988 ± 0.0071
GAGAGAGGGC | 0.966 ± 0.073
GAGAGAGGGG | 0.984 ± 0.026
GAGAGAGTGG | 0.976 ± 0.032
GAGAGATTGT | 1.005 ± 0.0086

Sequence | switch fluorescence ratio
GAGAGCAAAT | 1.09 ± 0.048
GAGAGCCACC | 0.971 ± 0.061
GAGAGCCGTT | 1 ± 0.017
GAGAGCTGCG | 1 ± 0.039
GAGAGGATAG | 0.98157 ± 0.0003
GAGAGGGATG | 1.01 ± 0.043
GAGAGGGTGT | 1.05 ± 0.081
GAGAGGTGGG | 1.01 ± 0.024
GAGAGGTGTT | 1.06 ± 0.039
GAGAGTACTT | 0.9945 ± 0.0093
GAGAGTCATC | 1.035 ± 0.0087
GAGATAAGGG | 0.961 ± 0.061
GAGATAGCTT | 0.955 ± 0.043
GAGATAGGGA | 1.01 ± 0.029
GAGATATTGG | 0.99 ± 0.013
GAGATCGCC | 0.982 ± 0.016
GAGATCGGTG | 0.96 ± 0.023
GAGATCTTTG | 0.967 ± 0.015
GAGATGGTAG | 0.976 ± 0.0069
GAGATGTAGG | 1 ± 0.014
GAGATTGTGT | 0.9936 ± 0.0048
GAGCAAAGGT | 1.04 ± 0.031
GAGCAACTGA | 1.022 ± 0.0018
GAGCACGGGT | 1.04 ± 0.053
GAGCACGTTT | 0.9963 ± 0.0072

Sequence | switch fluorescence ratio
GAGCAGATTG | 1.02 ± 0.036
GAGCAGCTCG | 0.9995 ± 0.0059
GAGCATATTG | 1.03 ± 0.03
GAGCATGAAA | 0.974 ± 0.04
GAGCATTTCC | 1.1 ± 0.043
GAGCATTTTT | 0.969 ± 0.029
GAGCCGTATT | 1.02 ± 0.093
GAGCGCTAGG | 0.9952 ± 0.0043
GAGCGGATTT | 1.03 ± 0.019
GAGCTAGGGG | 1.03 ± 0.041
GAGCTAGTCA | 0.975 ± 0.037
GAGCTGCAGT | 0.947 ± 0.047
GAGCTTTCCG | 1.19 ± 0.26
GAGGAAAGCG | 1.04 ± 0.089
GAGGAAGATT | 1.02 ± 0.021
GAGGAAGGAA | 1.04 ± 0.062
GAGGAAGTAT | 0.978 ± 0.0024
GAGGAAGTCG | 0.9961 ± 0.0055
GAGGACGGGG | 1.01 ± 0.011
GAGGAGAACG | 0.949 ± 0.049
GAGGAGAGGT | 1 ± 0.015
GAGGAGGGGC | 1.02 ± 0.054
GAGGATCGGG | 0.992 ± 0.023
GAGGATGAGG | 0.954 ± 0.0017
GAGGATGGTT | 0.964 ± 0.04

Sequence | switch fluorescence ratio
GAGGATTAGC | 0.99 ± 0.036
GAGGCAGACT | 1.23 ± 0.019
GAGGCAGCGA | 1.3 ± 0.016
GAGGCCGGGG | 0.9956 ± 0.0026
GAGGCGGATG | 0.997 ± 0.028
GAGGCGTTGC | 1.06 ± 0.05
GAGGCTATCT | 1.07 ± 0.0035
GAGGCTTAAG | 1.01 ± 0.019
GAGGGAAAGG | 1.02 ± 0.052
GAGGGAGGCA | 0.994 ± 0.019
GAGGGAGGGT | 1.02 ± 0.032
GAGGGATACA | 0.99 ± 0.043
GAGGGCATGA | 0.993 ± 0.074
GAGGGCATTT | 0.985 ± 0.02
GAGGGCCGCA | 1.05 ± 0.011
GAGGGCCGTG | 0.933 ± 0.043
GAGGGGAATT | 0.983 ± 0.014
GAGGGGACTT | 1.09 ± 0.13
GAGGGGCAGG | 1.02 ± 0.074
GAGGGGCCGG | 0.972 ± 0.057
GAGGGGCTGT | 0.981 ± 0.038
GAGGGGGCCA | 1.02 ± 0.027
GAGGGGGGGT | 1.08 ± 0.34
GAGGGGGTCT | 1.01 ± 0.064
GAGGGGGTTG | 1.01 ± 0.048
